Data from patent US20140099312A1 (Regeneron, published 2014).

Molecular target: hPCSK9(D374Y)-mmh (human, UniProt Q8NBP7 31-692)
Test: cell-based or functional assay

B1: H1M300N (antibody, V domains shown)
VH: EMQLVESGGGLVQPGGSLRLSCAASGFTFSSHWMKWVRQAPGKGLEWVANINQDGSEKYYVDSVKGRFTISRDNAKNSLFLQMNSLRAEDTAVYYCARDIVLMVYDMDYYYYGMDVWGQGTTVTVSS
VL: not shown
With B1 the “IC50, LDL uptake in HepG2 cells” value was 1.1 nM.
